Measurements published in patent publication US20240165282A1, “CONFORMATIONAL CONSTRAINED SOMATOSTATIN RECEPTOR 3 PEPTIDE LIGANDS AND THEIR CONJUGATES AND USES THEREOF” (STARGET PHARMA LTD., priority 2021, published 2024).
*1 amine or outer side, *2 acyl side, *3 side chain or, on linkers, in order; H or OH if unused. Bridges are numbered along the chain shown (N, C = ends). [ ]: non-standard residue; d: D form. The star is where a group is joined. DOTA = O=C(O)CN1CCN(CC(=O)O)CCN(CC(=O)*)CCN(CC(=O)O)CC1; N(2-mercaptoethyl)Gly = O=C(CN(CCS[*:3])[*:1])[*:2]

Tests used:
Assay in all cases: cell-based or functional assay
NTSR1 (human) = NTSR1 (human) (UniProt P30989)
CXCR1 (human) = CXCR1 (human) (UniProt P25024)
AGTRL1 (human) = AGTRL1 (human) (UniProt P35414)
Sequence of AGTRL1 (human) (P35414 whole entry): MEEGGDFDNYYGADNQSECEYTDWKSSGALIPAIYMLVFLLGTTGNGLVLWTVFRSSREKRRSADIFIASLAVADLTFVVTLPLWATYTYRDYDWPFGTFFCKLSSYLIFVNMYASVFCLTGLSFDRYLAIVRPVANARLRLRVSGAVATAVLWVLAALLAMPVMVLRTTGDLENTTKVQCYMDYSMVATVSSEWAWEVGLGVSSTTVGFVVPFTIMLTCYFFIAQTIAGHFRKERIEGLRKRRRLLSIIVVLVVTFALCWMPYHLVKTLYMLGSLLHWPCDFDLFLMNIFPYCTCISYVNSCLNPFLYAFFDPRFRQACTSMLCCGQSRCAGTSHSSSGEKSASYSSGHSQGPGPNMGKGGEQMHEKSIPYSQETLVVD

[1] = target: human cloned somatostatin receptor 3 (human) (UniProt P32745)
Sequence of human cloned somatostatin receptor 3 (human) (P32745 whole entry): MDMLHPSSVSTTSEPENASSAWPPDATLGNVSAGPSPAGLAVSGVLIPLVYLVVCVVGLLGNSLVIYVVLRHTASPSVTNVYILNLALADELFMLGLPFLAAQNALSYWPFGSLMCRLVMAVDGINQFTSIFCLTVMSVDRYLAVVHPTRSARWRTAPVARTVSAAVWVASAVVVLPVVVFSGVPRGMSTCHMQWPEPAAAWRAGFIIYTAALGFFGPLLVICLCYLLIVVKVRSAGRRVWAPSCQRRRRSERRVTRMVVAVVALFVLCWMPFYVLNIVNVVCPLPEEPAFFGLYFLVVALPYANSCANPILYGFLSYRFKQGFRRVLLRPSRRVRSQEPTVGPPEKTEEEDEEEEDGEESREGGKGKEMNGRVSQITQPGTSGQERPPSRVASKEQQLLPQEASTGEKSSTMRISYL

EDG7 (human) = EDG7 (human) (UniProt Q9UBY5)
CRHR1 (human) = CRHR1 (human) (UniProt P34998)
KISS1R (human) = KISS1R (human) (UniProt Q969F8)
OPRD1 (human) = OPRD1 (human) (UniProt P41143)
C5L2 (human) = C5L2 (human) (UniProt Q9P296)
NPBWR1 (human) = NPBWR1 (human) (UniProt P48145)
Sequence of NPBWR1 (human) (P48145 whole entry): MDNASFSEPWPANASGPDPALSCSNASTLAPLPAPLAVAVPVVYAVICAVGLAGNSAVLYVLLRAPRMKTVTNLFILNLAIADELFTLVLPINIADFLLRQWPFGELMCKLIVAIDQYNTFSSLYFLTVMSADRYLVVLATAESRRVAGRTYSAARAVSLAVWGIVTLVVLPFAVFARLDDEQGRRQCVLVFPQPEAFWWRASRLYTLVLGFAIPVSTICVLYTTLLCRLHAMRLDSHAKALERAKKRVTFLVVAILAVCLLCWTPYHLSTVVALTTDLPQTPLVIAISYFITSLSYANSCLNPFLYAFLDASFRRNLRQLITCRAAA

GALR1 (human) = GALR1 (human) (UniProt P47211)
Sequence of GALR1 (human) (P47211 whole entry): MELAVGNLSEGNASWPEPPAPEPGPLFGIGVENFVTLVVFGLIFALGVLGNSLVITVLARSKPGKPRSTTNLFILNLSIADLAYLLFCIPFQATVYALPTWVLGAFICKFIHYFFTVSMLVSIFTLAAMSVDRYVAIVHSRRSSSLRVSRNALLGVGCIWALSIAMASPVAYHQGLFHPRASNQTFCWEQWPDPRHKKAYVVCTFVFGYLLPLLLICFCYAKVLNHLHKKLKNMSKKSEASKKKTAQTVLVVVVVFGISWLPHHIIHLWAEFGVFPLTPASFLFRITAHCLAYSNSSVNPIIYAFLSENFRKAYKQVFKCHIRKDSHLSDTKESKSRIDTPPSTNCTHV

CXCR5 (human) = CXCR5 (human) (UniProt P32302)
DRD2S (human) = DRD2S (human) (UniProt P14416)
MRGPRX2 (human) = MRGPRX2 (human) (UniProt Q96LB1)
Sequence of MRGPRX2 (human) (Q96LB1 whole entry): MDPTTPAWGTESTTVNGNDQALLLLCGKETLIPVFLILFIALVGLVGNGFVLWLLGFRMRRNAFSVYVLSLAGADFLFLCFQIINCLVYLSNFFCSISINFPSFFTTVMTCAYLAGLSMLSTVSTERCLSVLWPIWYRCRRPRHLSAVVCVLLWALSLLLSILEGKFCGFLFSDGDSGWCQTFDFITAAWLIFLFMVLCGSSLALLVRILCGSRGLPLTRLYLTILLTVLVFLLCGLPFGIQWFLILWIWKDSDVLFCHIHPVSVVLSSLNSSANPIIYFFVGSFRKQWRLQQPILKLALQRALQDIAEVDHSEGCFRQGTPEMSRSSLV

TACR3 (human) = TACR3 (human) (UniProt P29371)
GPR35 (human) = GPR35 (human) (UniProt Q9HC97)
EDG4 (human) = EDG4 (human) (UniProt Q9HBW0)
PTGFR (human) = PTGFR (human) (UniProt P43088)
Sequence of PTGFR (human) (P43088 whole entry): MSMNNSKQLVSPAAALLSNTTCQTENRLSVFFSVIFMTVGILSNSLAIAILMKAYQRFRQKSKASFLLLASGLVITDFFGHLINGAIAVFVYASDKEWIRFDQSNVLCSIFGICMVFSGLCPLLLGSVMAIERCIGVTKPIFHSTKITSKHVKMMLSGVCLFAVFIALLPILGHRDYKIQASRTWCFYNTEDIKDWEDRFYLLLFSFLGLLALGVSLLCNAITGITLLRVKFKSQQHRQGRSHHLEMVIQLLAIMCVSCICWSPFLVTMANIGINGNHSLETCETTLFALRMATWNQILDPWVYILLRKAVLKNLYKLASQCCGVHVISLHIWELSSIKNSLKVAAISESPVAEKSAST

(CR)R-RAMP3 (human) = (CR)R-RAMP3 (human) (UniProt P30988)
Sequence of (CR)R-RAMP3 (human) (P30988 25-474, chain 1 of 2): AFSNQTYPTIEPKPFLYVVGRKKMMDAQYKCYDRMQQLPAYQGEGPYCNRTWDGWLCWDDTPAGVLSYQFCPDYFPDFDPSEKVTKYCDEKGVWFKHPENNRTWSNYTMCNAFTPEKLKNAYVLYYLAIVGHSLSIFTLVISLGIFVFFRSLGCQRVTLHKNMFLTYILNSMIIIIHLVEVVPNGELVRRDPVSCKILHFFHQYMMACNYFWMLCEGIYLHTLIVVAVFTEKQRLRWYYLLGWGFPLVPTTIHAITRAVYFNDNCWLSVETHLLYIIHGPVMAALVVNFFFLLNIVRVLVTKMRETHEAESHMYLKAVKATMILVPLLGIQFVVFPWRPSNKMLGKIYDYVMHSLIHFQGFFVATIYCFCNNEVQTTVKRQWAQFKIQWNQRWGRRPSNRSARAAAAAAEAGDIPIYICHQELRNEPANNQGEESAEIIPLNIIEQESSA
Sequence of (CR)R-RAMP3 (human) (O60896 24-148, chain 2 of 2, further chain): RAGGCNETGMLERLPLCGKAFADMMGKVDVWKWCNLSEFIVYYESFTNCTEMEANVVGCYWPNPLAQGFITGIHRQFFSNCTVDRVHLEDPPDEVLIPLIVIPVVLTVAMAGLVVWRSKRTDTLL

NMBR (human) = NMBR (human) (UniProt P28336)
MC3R (human) = MC3R (human) (UniProt P41968)
(CR)R-RAMP2 (human) = (CR)R-RAMP2 (human) (UniProt P30988)
Sequence of (CR)R-RAMP2 (human) (P30988 25-474, chain 1 of 2): as the sequence (P30988 25-474, chain 1 of 2) above
Sequence of (CR)R-RAMP2 (human) (O60895 43-175, chain 2 of 2, further chain): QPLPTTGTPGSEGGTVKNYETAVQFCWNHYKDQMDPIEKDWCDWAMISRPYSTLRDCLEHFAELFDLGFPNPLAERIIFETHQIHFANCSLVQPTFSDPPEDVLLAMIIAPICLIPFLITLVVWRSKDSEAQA

(CR)L-RAMP3 (human) = (CR)L-RAMP3 (human) (UniProt Q16602)
DRD3 (human) = DRD3 (human) (UniProt P35462)
Sequence of DRD3 (human) (P35462 whole entry): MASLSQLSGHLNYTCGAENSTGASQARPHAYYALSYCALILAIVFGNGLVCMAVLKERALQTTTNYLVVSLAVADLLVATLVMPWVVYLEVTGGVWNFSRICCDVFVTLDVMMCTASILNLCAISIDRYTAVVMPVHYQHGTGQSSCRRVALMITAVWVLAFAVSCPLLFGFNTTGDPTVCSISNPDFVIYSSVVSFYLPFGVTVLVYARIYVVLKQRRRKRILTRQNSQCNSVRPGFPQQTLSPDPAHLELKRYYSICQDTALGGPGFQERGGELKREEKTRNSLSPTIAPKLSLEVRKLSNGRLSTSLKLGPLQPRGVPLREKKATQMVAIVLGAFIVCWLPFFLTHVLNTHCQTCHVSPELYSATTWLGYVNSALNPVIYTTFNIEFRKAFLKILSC

CNR2 (human) = CNR2 (human) (UniProt P34972)
MC5R (human) = MC5R (human) (UniProt P33032)
GRPR (human) = GRPR (human) (UniProt P30550)
Sequence of GRPR (human) (P30550 whole entry): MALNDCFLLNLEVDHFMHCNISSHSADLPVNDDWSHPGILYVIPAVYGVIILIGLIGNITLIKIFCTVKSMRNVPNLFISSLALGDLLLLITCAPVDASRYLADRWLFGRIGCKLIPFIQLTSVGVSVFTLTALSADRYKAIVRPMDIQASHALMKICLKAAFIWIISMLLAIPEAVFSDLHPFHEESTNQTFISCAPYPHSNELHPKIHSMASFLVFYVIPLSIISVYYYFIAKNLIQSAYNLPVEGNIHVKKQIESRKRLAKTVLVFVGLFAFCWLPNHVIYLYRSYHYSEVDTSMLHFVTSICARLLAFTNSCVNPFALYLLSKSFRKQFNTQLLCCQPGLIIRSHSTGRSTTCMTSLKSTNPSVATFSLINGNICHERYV

EDG5 (human) = EDG5 (human) (UniProt O95136)
PTAFR (human) = PTAFR (human) (UniProt P25105)
CXCR2 (human) = CXCR2 (human) (UniProt P25025)
GPR1 (human) = GPR1 (human) (UniProt P46091)
NPSR1b (human) = NPSR1b (human) (UniProt Q6W5P4)
CCR8 (human) = CCR8 (human) (UniProt P51685)
AVPR1B (human) = AVPR1B (human) (UniProt P47901)
HTR1E (human) = HTR1E (human) (UniProt P28566)
ADCYAP1R1 (human) = ADCYAP1R1 (human) (UniProt P41586)
ADORA3 (human) = ADORA3 (human) (UniProt P0DMS8)
[2] = target: human cloned somatostatin receptor 5 (human) (UniProt P35346)
CCR4 (human) = CCR4 (human) (UniProt P51679)
CCR10 (human) = CCR10 (human) (UniProt P46092)
MLNR (human) = MLNR (human) (UniProt O43193)
HRH1 (human) = HRH1 (human) (UniProt P35367)
Sequence of HRH1 (human) (P35367 whole entry): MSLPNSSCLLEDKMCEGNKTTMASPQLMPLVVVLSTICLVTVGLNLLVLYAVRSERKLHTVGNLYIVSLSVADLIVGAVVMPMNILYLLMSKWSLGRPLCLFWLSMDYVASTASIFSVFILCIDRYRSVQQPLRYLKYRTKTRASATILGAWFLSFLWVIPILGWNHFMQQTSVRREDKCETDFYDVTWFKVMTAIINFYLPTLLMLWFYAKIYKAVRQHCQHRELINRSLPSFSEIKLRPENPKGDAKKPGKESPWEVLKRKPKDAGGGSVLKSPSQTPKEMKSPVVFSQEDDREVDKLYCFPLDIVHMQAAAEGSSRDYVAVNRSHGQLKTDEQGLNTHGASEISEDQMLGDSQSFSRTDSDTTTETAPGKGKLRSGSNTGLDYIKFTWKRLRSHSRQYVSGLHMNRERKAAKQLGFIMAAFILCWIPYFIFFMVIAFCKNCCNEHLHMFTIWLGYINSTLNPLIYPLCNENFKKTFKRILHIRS

LHCGR (human) = LHCGR (human) (UniProt P22888)
Sequence of LHCGR (human) (P22888 27-699): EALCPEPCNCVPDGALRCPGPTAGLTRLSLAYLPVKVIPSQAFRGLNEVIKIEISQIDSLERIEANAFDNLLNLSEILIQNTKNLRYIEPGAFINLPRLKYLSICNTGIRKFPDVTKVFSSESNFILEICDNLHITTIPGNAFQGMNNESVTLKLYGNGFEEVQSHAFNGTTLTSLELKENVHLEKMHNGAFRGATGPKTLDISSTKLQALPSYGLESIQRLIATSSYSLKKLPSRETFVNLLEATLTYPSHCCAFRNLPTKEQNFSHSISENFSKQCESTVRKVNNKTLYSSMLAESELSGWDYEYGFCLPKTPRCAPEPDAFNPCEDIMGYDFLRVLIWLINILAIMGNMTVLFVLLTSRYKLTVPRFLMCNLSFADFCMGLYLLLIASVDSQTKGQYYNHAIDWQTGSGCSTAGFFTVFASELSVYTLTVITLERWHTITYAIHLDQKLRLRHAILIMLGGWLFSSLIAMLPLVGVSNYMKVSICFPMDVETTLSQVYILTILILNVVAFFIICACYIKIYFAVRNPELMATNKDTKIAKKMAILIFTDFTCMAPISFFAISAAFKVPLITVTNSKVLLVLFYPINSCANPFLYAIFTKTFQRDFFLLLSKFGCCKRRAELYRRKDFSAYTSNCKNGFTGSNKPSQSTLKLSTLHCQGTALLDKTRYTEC

HTR5A (human) = HTR5A (human) (UniProt P47898)
ADRA1B (human) = ADRA1B (human) (UniProt P35368)
(CR)L-RAMP2 (human) = (CR)L-RAMP2 (human) (UniProt Q16602)
PROKR2 (human) = PROKR2 (human) (UniProt Q8NFJ6)
CCR2 (human) = CCR2 (human) (UniProt P41597)
P2RY1 (human) = P2RY1 (human) (UniProt P47900)
HRH3 (human) = HRH3 (human) (UniProt Q9Y5N1)
FPR1 (human) = FPR1 (human) (UniProt P21462)
HCRTR1 (human) = HCRTR1 (human) (UniProt O43613)
BDKRB1 (human) = BDKRB1 (human) (UniProt P46663)
C3AR1 (human) = C3AR1 (human) (UniProt Q16581)
GPR109A (human) = GPR109A (human) (UniProt Q8TDS4)
CCR9 (human) = CCR9 (human) (UniProt P51686)
CHRM5 (human) = CHRM5 (human) (UniProt P08912)
FPRL1 (human) = FPRL1 (human) (UniProt P25090)

B1: SEQ ID NO: 4 (peptide)
peptide: {DOTA}-[dF]RCF[dW]KTF[N(2-mercaptoethyl)Gly]-NH2
modifications: disulfide 3-9; also: Ga complex of DOTA
- % Activity (agonist mode, 1 µM) (NTSR1 (human)): 3%
- % Activity (agonist mode, 1 µM) (CXCR1 (human)): 0%
- % Activity (agonist mode, 1 µM) (AGTRL1 (human)): -1%
- % Activity (agonist mode, 1 µM) [1]: 200%
- Cellular Internalization EC50 (β-Arrestin Luminescence Assay) [1]: 16 nM
- Efficacy - maximal response [1]: 75200 RLU
- intensity of beta-arrestin response against SRIF-14 [1]: 2 fold
- % Activity (agonist mode, 1 µM) (EDG7 (human)): 0%
- % Activity (agonist mode, 1 µM) (CRHR1 (human)): 0%
- % Activity (agonist mode, 1 µM) (KISS1R (human)): 0%
- % Activity (agonist mode, 1 µM) (OPRD1 (human)): -1%
- % Activity (agonist mode, 1 µM) (C5L2 (human)): -1%
- % Activity (agonist mode, 1 µM) (NPBWR1 (human)): 2%
- % Activity (agonist mode, 1 µM) (GALR1 (human)): 2%
- % Activity (agonist mode, 1 µM) (CXCR5 (human)): 0%
- % Activity (agonist mode, 1 µM) (DRD2S (human)): 0%
- % Activity (agonist mode, 1 µM) (MRGPRX2 (human)): 1%
- % Activity (agonist mode, 1 µM) (TACR3 (human)): 1%
- % Activity (agonist mode, 1 µM) (GPR35 (human)): 1%
- % Activity (agonist mode, 1 µM) (EDG4 (human)): 6%
- % Activity (agonist mode, 1 µM) (PTGFR (human)): 0%
- % Activity (agonist mode, 1 µM) ((CR)R-RAMP3 (human)): -13%
- % Activity (agonist mode, 1 µM) (NMBR (human)): 1%
- % Activity (agonist mode, 1 µM) (MC3R (human)): 0%
- % Activity (agonist mode, 1 µM) ((CR)R-RAMP2 (human)): 0%
- % Activity (agonist mode, 1 µM) ((CR)L-RAMP3 (human)): 0%
- % Activity (agonist mode, 1 µM) (DRD3 (human)): 9%
- % Activity (agonist mode, 1 µM) (CNR2 (human)): 2%
- % Activity (agonist mode, 1 µM) (MC5R (human)): -5%
- % Activity (agonist mode, 1 µM) (GRPR (human)): 0%
- % Activity (agonist mode, 1 µM) (EDG5 (human)): -2%
- % Activity (agonist mode, 1 µM) (PTAFR (human)): -2%
- % Activity (agonist mode, 1 µM) (CXCR2 (human)): -1%
- % Activity (agonist mode, 1 µM) (GPR1 (human)): 0%
- % Activity (agonist mode, 1 µM) (NPSR1b (human)): -1%
- % Activity (agonist mode, 1 µM) (CCR8 (human)): 0%
- % Activity (agonist mode, 1 µM) (AVPR1B (human)): 1%
- % Activity (agonist mode, 1 µM) (HTR1E (human)): 1%
- % Activity (agonist mode, 1 µM) (ADCYAP1R1 (human)): 0%
- % Activity (agonist mode, 1 µM) (ADORA3 (human)): -6%
- % Activity (agonist mode, 1 µM) [2]: 16%
- % Activity (agonist mode, 1 µM) (CCR4 (human)): 0%
- % Activity (agonist mode, 1 µM) (CCR10 (human)): -2%
- % Activity (agonist mode, 1 µM) (MLNR (human)): 1%
- % Activity (agonist mode, 1 µM) (HRH1 (human)): -1%
- % Activity (agonist mode, 1 µM) (LHCGR (human)): 1%
- % Activity (agonist mode, 1 µM) (HTR5A (human)): 0%
- % Activity (agonist mode, 1 µM) (ADRA1B (human)): -2%
- % Activity (agonist mode, 1 µM) ((CR)L-RAMP2 (human)): 3%
- % Activity (agonist mode, 1 µM) (PROKR2 (human)): 2%
- % Activity (agonist mode, 1 µM) (CCR2 (human)): 1%
- % Activity (agonist mode, 1 µM) (P2RY1 (human)): -2%
- % Activity (agonist mode, 1 µM) (HRH3 (human)): -2%
- % Activity (agonist mode, 1 µM) (FPR1 (human)): -1%
- % Activity (agonist mode, 1 µM) (HCRTR1 (human)): 0%
- % Activity (agonist mode, 1 µM) (BDKRB1 (human)): -5%
- % Activity (agonist mode, 1 µM) (C3AR1 (human)): 0%
- % Activity (agonist mode, 1 µM) (GPR109A (human)): 0%
- % Activity (agonist mode, 1 µM) (CCR9 (human)): 0%
- % Activity (agonist mode, 1 µM) (CHRM5 (human)): 5%
- % Activity (agonist mode, 1 µM) (FPRL1 (human)): 0%
